B1: anti-IL-6 antibody, heavy chain Q99H, light chain WT (antibody, IgG1, V domains shown)
VH: EVQLVESGGGLVQPGGSLRLSCAASGFTFSPFAMSWVRQAPGKGLEWVAKISPGGSWTYYSDTVTGRFTFSLDTSKSTAYLQMNSLRAEDTAVYYCARHLWGYYALDIWGQGTLVTVSS
VL: DIQLTQSPSSLSASVGDRVTITCSASISVSYMYWYQQKPGKAPKLLIYDMSNLASGVPSRFSGSGSGTDFTLTISSLQPEDFATYYCMQWSGYPYTFGQGTKVEIK
notes: Full IgG1 tested; V domains derived as in m2
B2: anti-IL-6 antibody, heavy chain WT, light chain S24P (antibody, IgG1, V domains shown)
VH: B1 VH with H99Q
VL: B1 VL with S24P
notes: as for B1
B3: anti-IL-6 antibody, heavy chain T65G, light chain WT (antibody, IgG1, V domains shown)
VH: B1 VH with T65G, H99Q
VL: B1 VL
notes: as for B1
B4: anti-IL-6 antibody, heavy chain T58K, light chain WT (antibody, IgG1, V domains shown)
VH: B1 VH with T58K, H99Q
VL: B1 VL
notes: as for B1
B5: anti-IL-6 antibody, heavy chain T28Y, light chain WT (antibody, IgG1, V domains shown)
VH: B1 VH with T28Y, H99Q
VL: B1 VL
notes: as for B1
B6: anti-IL-6 antibody, heavy chain R98G, light chain WT (antibody, IgG1, V domains shown)
VH: B1 VH with R98G, H99Q
VL: B1 VL
notes: as for B1
B7: anti-IL-6 antibody, heavy chain T65Y, light chain WT (antibody, IgG1, V domains shown)
VH: B1 VH with T65Y, H99Q
VL: B1 VL
notes: as for B1
B8: anti-IL-6 antibody, heavy chain S30G, light chain WT (antibody, IgG1, V domains shown)
VH: B1 VH with S30G, H99Q
VL: B1 VL
notes: Full IgG1 tested; V domains derived as in m2; also called S30G (heavy chain)
B9: anti-IL-6 antibody, heavy chain WT, light chain S24K (antibody, IgG1, V domains shown)
VH: B1 VH with H99Q
VL: B1 VL with S24K
notes: as for B1
B10: anti-IL-6 antibody, heavy chain T28E, light chain WT (antibody, IgG1, V domains shown)
VH: B1 VH with T28E, H99Q
VL: B1 VL
notes: as for B1
B11: anti-IL-6 antibody, heavy chain T63K, light chain WT (antibody, IgG1, V domains shown)
VH: B1 VH with T63K, H99Q
VL: B1 VL
notes: as for B1
B12: anti-IL-6 antibody, heavy chain S35Q, light chain WT (antibody, IgG1, V domains shown)
VH: B1 VH with S35Q, H99Q
VL: B1 VL
notes: as for B1
B13: anti-IL-6 antibody, heavy chain S30W, light chain WT (antibody, IgG1, V domains shown)
VH: B1 VH with S30W, H99Q
VL: B1 VL
notes: as for B1
B14: anti-IL-6 antibody, heavy chain S30Y, light chain WT (antibody, IgG1, V domains shown)
VH: B1 VH with S30Y, H99Q
VL: B1 VL
notes: as for B1
B15: anti-IL-6 antibody, heavy chain WT, light chain S24V (antibody, IgG1, V domains shown)
VH: B1 VH with H99Q
VL: B1 VL with S24V
notes: as for B1
B16: anti-IL-6 antibody, heavy chain S35H, light chain WT (antibody, IgG1, V domains shown)
VH: B1 VH with S35H, H99Q
VL: B1 VL
notes: as for B1
B17: anti-IL-6 antibody, heavy chain T63D, light chain WT (antibody, IgG1, V domains shown)
VH: B1 VH with T63D, H99Q
VL: B1 VL
notes: as for B1
B18: anti-IL-6 antibody, heavy chain T58V, light chain WT (antibody, IgG1, V domains shown)
VH: B1 VH with T58V, H99Q
VL: B1 VL
notes: as for B1
B19: anti-IL-6 antibody, heavy chain S61R, light chain WT (antibody, IgG1, V domains shown)
VH: B1 VH with S61R, H99Q
VL: B1 VL
notes: as for B1
B20: anti-IL-6 antibody, heavy chain S56R, light chain WT (antibody, IgG1, V domains shown)
VH: B1 VH with S56R, H99Q
VL: B1 VL
notes: as for B1
B21: anti-IL-6 antibody, heavy chain S56H, light chain WT (antibody, IgG1, V domains shown)
VH: B1 VH with S56H, H99Q
VL: B1 VL
notes: as for B1
B22: anti-IL-6 antibody, heavy chain S61A, light chain WT (antibody, IgG1, V domains shown)
VH: B1 VH with S61A, H99Q
VL: B1 VL
notes: as for B1
B23: anti-IL-6 antibody, heavy chain V64A, light chain WT (antibody, IgG1, V domains shown)
VH: B1 VH with V64A, H99Q
VL: B1 VL
notes: as for B1
B24: anti-IL-6 antibody, heavy chain WT, light chain S24I (antibody, IgG1, V domains shown)
VH: B1 VH with H99Q
VL: B1 VL with S24I
notes: as for B1
B25: anti-IL-6 antibody, heavy chain V48I, light chain WT (antibody, IgG1, V domains shown)
VH: B1 VH with V48I, H99Q
VL: B1 VL
notes: as for B1
B26: anti-IL-6 antibody, heavy chain T63G, light chain WT (antibody, IgG1, V domains shown)
VH: B1 VH with T63G, H99Q
VL: B1 VL
notes: as for B1
B27: anti-IL-6 antibody, heavy chain T63Q, light chain WT (antibody, IgG1, V domains shown)
VH: B1 VH with T63Q, H99Q
VL: B1 VL
notes: as for B1
B28: anti-IL-6 antibody, heavy chain T28A, light chain WT (antibody, IgG1, V domains shown)
VH: B1 VH with T28A, H99Q
VL: B1 VL
notes: as for B1
B29: anti-IL-6 antibody, heavy chain T58R, light chain WT (antibody, IgG1, V domains shown)
VH: B1 VH with T58R, H99Q
VL: B1 VL
notes: as for B1
B30: anti-IL-6 antibody, heavy chain T28K, light chain WT (antibody, IgG1, V domains shown)
VH: B1 VH with T28K, H99Q
VL: B1 VL
notes: as for B1
B31: anti-IL-6 antibody, heavy chain V48Q, light chain WT (antibody, IgG1, V domains shown)
VH: B1 VH with V48Q, H99Q
VL: B1 VL
notes: as for B1
B32: anti-IL-6 antibody, heavy chain T63E, light chain WT (antibody, IgG1, V domains shown)
VH: B1 VH with T63E, H99Q
VL: B1 VL
notes: as for B1

Kd, koff and kon data for 32 molecules are collected here from patent US20240209076A1 (KODIAK SCIENCES, published 2024).

Positions count from the first letter of the chain named. Numbers in names are those of the source.

For this test, the target named is T1, recombinant human IL-6 (human, UniProt P05231 30-212).
T1 construct: Flowed in solution over the captured antibodies
T1 sequence (P05231 30-212 limits assumed): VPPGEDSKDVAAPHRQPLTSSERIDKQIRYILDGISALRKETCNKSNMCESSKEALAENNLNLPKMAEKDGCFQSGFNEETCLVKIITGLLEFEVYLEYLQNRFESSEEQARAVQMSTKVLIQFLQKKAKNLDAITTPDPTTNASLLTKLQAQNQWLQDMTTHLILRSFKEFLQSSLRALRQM
In words: SPR (Biacore), supernatant IgG on Protein A, 25 C. The protocol:
Antibodies were captured on a Protein A chip (GE) by injecting 1:20 dilution of cell supernatant at 10 μL/min for 60 seconds. […] The sensor chip was regenerated by a 60 seconds injection of 10 mM Glycine pH 1.7 at flow rate of 50 μL/min. […] For this setup, 1 μg/mL of purified antibody was injected over a Protein A chip at 10 μL/min for 25-28 seconds. Data analysis for supernatant and purified samples were performed using BIAevaluation software (GE). All sensorgrams were double reference subtracted and fit using a 1:1 Langmuir binding model.
For the molecule B1, the Kd is 1.94 nM, the koff turned out to be 0.00105 s⁻¹ and the kon turned out to be 539000 M⁻¹ s⁻¹.

B2: the equilibrium dissociation constant (Kd) worked out at 0.00551 nM, the koff was found to be 2.67e-06 s⁻¹ and the kon was 484000 M⁻¹ s⁻¹.

For B3, the Kd stood at 0.0954 nM, the off-rate (koff) was 5.69e-05 s⁻¹ and the association rate constant (kon) is 597000 M⁻¹ s⁻¹.

For B4, the Kd worked out at 0.39 nM, the off-rate (koff) is 0.000179 s⁻¹ and the kon was found to be 460000 M⁻¹ s⁻¹.

In the case of B5, the Kd worked out at 0.412 nM, the koff is 0.000137 s⁻¹ and the kon is 332000 M⁻¹ s⁻¹.

For B6, the Kd turned out to be 1.42 nM, the koff stood at 0.000251 s⁻¹ and the kon was 176000 M⁻¹ s⁻¹.

As to B7, the Kd is 0.275 nM, the off-rate constant (koff) was 0.000206 s⁻¹ and the kon is 749000 M⁻¹ s⁻¹.

In the case of B8, the Kd turned out to be 0.333 nM, the koff worked out at 0.000132 s⁻¹ and the kon amounted to 398000 M⁻¹ s⁻¹.

On to B9, for which the dissociation constant Kd was 0.424 nM, the koff was determined as 0.000132 s⁻¹ and the kon was found to be 311000 M⁻¹ s⁻¹.

For B10, the Kd turned out to be 0.347 nM, the koff was 0.000163 s⁻¹ and the kon is 469000 M⁻¹ s⁻¹.

For the molecule B11, the Kd was 0.388 nM, the koff amounted to 0.000212 s⁻¹ and the kon turned out to be 546000 M⁻¹ s⁻¹.

As to B12, the equilibrium dissociation constant (Kd) stood at 0.346 nM, the koff was found to be 0.00013 s⁻¹ and the kon came out at 375000 M⁻¹ s⁻¹.

On to B13, for which the Kd came out at 0.376 nM, the koff worked out at 0.000157 s⁻¹ and the kon worked out at 417000 M⁻¹ s⁻¹.

As to B14, the Kd came to 0.334 nM, the koff was found to be 0.000122 s⁻¹ and the kon was determined as 365000 M⁻¹ s⁻¹.

In the case of B15, the Kd amounted to 0.403 nM, the koff turned out to be 0.000137 s⁻¹ and the kon was 340000 M⁻¹ s⁻¹.

As to B16, the Kd amounted to 0.379 nM, the koff was 0.000132 s⁻¹ and the kon amounted to 348000 M⁻¹ s⁻¹.

Turning to B17, the Kd came to 0.423 nM, the koff was determined as 0.000174 s⁻¹ and the kon worked out at 410000 M⁻¹ s⁻¹.

Take B18: the Kd was found to be 0.226 nM, the koff was 0.000181 s⁻¹ and the kon came to 803000 M⁻¹ s⁻¹.

As to B19, the Kd was 0.467 nM, the koff is 0.000162 s⁻¹ and the kon was found to be 348000 M⁻¹ s⁻¹.

Consider B20, for which the Kd is 0.567 nM, the koff was determined as 0.000155 s⁻¹ and the kon was found to be 273000 M⁻¹ s⁻¹.

For the molecule B21, the dissociation constant (Kd) is 0.452 nM, the koff was found to be 0.000161 s⁻¹ and the kon is 356000 M⁻¹ s⁻¹.

For B22, the Kd is 0.394 nM, the koff is 0.000149 s⁻¹ and the kon was 379000 M⁻¹ s⁻¹.

Consider B23, for which the Kd was 0.402 nM, the koff came out at 0.000178 s⁻¹ and the kon was determined as 444000 M⁻¹ s⁻¹.

Turning to B24, the Kd is 0.284 nM, the koff was 0.000135 s⁻¹ and the kon came to 476000 M⁻¹ s⁻¹.

Consider B25, for which the Kd was 0.346 nM, the koff turned out to be 0.000159 s⁻¹ and the kon stood at 460000 M⁻¹ s⁻¹.

B26: the Kd was 0.404 nM, the koff was found to be 0.000209 s⁻¹ and the on-rate (kon) was found to be 517000 M⁻¹ s⁻¹.

With B27, the Kd worked out at 0.594 nM, the off-rate (koff) was 0.000184 s⁻¹ and the kon was 309000 M⁻¹ s⁻¹.

B28: the Kd is 0.354 nM, the koff was found to be 0.000139 s⁻¹ and the kon is 393000 M⁻¹ s⁻¹.

On to B29, for which the Kd came out at 0.426 nM, the koff amounted to 0.000152 s⁻¹ and the kon stood at 357000 M⁻¹ s⁻¹.

As to B30, the Kd was found to be 0.37 nM, the koff is 0.000143 s⁻¹ and the kon is 386000 M⁻¹ s⁻¹.

Turning to B31, the Kd is 0.21 nM, the koff stood at 0.000138 s⁻¹ and the kon was determined as 654000 M⁻¹ s⁻¹.

For the molecule B32, the Kd was found to be 0.445 nM, the off-rate constant (koff) was 0.000169 s⁻¹ and the kon is 380000 M⁻¹ s⁻¹.
